Measurements reported in patent US20050182242A1, “Global analysis of protein activities using proteome chips” (priority 2001, published 2005).

Experiments:
[1] = system: phosphatidylcholine (PC) liposomes; test: Yeast proteome chip probed with PC liposomes; details: liposome binding signal on yeast proteome chip, Cy3-streptavidin detection
Method in brief: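 Yeast proteome chips incubated 1 h at RT with sonicated liposomes of PC containing 1% (w/w) biotin-DHPE, plus 5% (w/w) of the indicated phosphoinositide where applicable. After PBS washes, bound liposomes detected with Cy3- or Cy5-streptavidin (>30 min, RT, dark) and fluorescence scanned.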

PI(3,4,5)P3 liposomes = test: Yeast proteome chip probed with PI(3,4,5)P3 liposomes; details: liposome binding signal on yeast proteome chip, Cy3-streptavidin detection
PI(3,4)P2 liposomes = test: Yeast proteome chip probed with PI(3,4)P2 liposomes; details: liposome binding signal on yeast proteome chip, Cy3-streptavidin detection
PI(3)P liposomes = test: Yeast proteome chip probed with PI(3)P liposomes; details: liposome binding signal on yeast proteome chip, Cy3-streptavidin detection
PI(4,5)P2 liposomes = test: Yeast proteome chip probed with PI(4,5)P2 liposomes; details: liposome binding signal on yeast proteome chip, Cy3-streptavidin detection
[2] = system: phospholipids (phosphatidylinositols vs phosphatidylcholine); test: Proteome chip lipid-binding screen, overall analysis of six liposomes (PI/PC specificity); details: compared with phosphatidylcholine
Method in brief: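 Yeast proteome chips probed with PC liposomes carrying 1% biotin DHPE, plus 5% PI(3)P, PI(4)P, PI(3,4)P2, PI(4,5)P2 or PI(3,4,5)P3, 1 h at RT. Binding detected with Cy3/Cy5-streptavidin; PI signals normalized to PC signals, giving PI/PC ratios (>1.3 taken as PI-preferential).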

Row | Molecule | PC [1] | PI(3, 4, 5)P3 (PI(3,4,5)P3 liposomes) | PI(3, 4)P2 (PI(3,4)P2 liposomes) | PI(3)P (PI(3)P liposomes) | PI(4, 5)P2 (PI(4,5)P2 liposomes) | preferential binding of particular phosphatidylinositol lipids [2]
1 | CMK1: yeast calcium/calmodulin-dependent serine/threonine protein kinase, GST-HisX6 fusion (protein, left off: a dimerising Fc or GST, yeast calcium/calmodulin-dependent serine/threonine protein kinase, GST-HisX6 fusion) MDDKVSEKESSPKQTEEDSEGKMAHVQPASYVNKKKYVFGKTLGAGTFGVVRQAKNTETGEDVAVKILIKKALKGNKVQLEALYDELDILQRLHHPNIVAFKDWFESKDKFYIITQLAKGGELFDRILKKGKFTEEDAVRILVEILSAVKYMHSQNIVHRDLKPENLLYIDKSDESPLVVADFGIAKRLKSDEELLYKPAGSLGYVAPEVLTQDGHGKPCDIWSIGVITYTLLCGYSAFRAERVQDFLDECTTGEYPVKFHRPYWDSVSNKAKQFILKALNLDPSKRPTAAELLEDPWIICTELKTHNLLPGLKEGLDARQKFRNSVERVRLNMKIQKLRDLYLEQTESDSDFDEGSQANGSVPPLKATDTSQLSKKLSEEEQSKLKSELTSKAFAQLVNTVLAEKEKFLNINRVCSSDSDLPGSDIKSLDEAKEKPEGKDTKTEE | 1073.54 | 699.07 | 1786.71 | 7.00 | 545.23 | 
2 | MY04: yeast class V myosin heavy chain, GST-HisX6 fusion (protein, UniProt P32492 1-1471, looked up, GST-HisX6 tag, yeast class V myosin heavy chain, GST-HisX6 fusion) Myosin-4: MSFEVGTKCWYPHKEQGWIGGEVTKNDFFEGTFHLELKLEDGETVSIETNSFENDDDHPTLPVLRNPPILESTDDLTTLSYLNEPAVLHAIKKRYMNGQIYTYSGIVLIAANPFDKVDHLYSREMIQNYSSKRKDELEPHLFAIAEEAYRFMVHEKANQTVVVSGESGAGKTVSAKYIMRYFASVQESNNREGEVEMSQIESQILATNPIMEAFGNAKTTRNDNSSRFGKYLQILFDENTTIRGSKIRTYLLEKSRLVYQPETERNYHIFYQILEGLPEPVKQELHLSSPKDYHYTNQGGQPNIAGIDEAREYKITTDALSLVGINHETQLGIFKILAGLLHIGNIEMKMTRNDASLSSEEQNLQIACELLGIDPFNFAKWIVKKQIVTRSEKIVTNLNYNQALIARDSVAKFIYSTLFDWLVDNINKTLYDPELDQQDHVFSFIGILDIYGFEHFEKNSFEQFCINYANEKLQQEFNQHVFKLEQEEYVKEEIEWSFIEFSDNQPCIDLIENKLGILSLLDEESRLPSGSDESWASKLYSAFNKPPSNEVFSKPRFGQTKFIVSHYAVDVEYEVEGFIEKNRDSVSLGHLDVFKATTNPIFKQILDNRELRSDDAPEEQNTEKKIMIPARLSQKKPTLGSMFKKSLGELMAIINSTNVHYIRCIKPNSEKKPWEFDNLMVLSQLRACGVLETIRISCAGFPSRWTFDEFVQRYFLLTDYSLWSGILYNPDLPKEAIVNFCQSILDATISDSAKYQIGNTKIFFKAGMLAFLEKLRTNKMNEICIIIQKKIRARYYRLQYLQTMESIKKCQSQIRSLLVRTRVDHELKTRAAILLQTNIRALWKREYYRAAIGQIIKLQCTCKRKLILDSVNRKFMLMAAVIIQSYIRSYGHKTDYRTLKRSSILVQSAMRMQLARRRYIVLQKEVEERNIRASYGIGLLEEAIEFKNSFILNLEMLNDSYTRLTQLLQGDLSNIPSKQRQEYETIVNGYNDKISKLKTLQVEIMNTLNKKNALKERKKKQSSLIQSHMQSLAAIKGNKPSRLSDEVKSMKQELAFIENVIAQDFTTTYSANKNDKVKGLGIAGQQVKPKLVNVIRRESGNPDLLELLMDLNCYTLEVTEGYLKKVNVTEVNGDNVLGPIHVITTVVSSLVRNGLLIQSSKFISKVLLTVESIVMSLPKDETMLGGIFWLSNLSRLPAFAANQKTLYEANGGDEKDKLTLIYLNDLENETLKVFDKIYSTWLVKFMKHASAHIEIFDMVLNEKLFKNSGDEKFAKLFTFLNEFDAVLCKFQVVDSMHTKIFNDTLKYLNVMLFNDLITKCPALNWKYGYEVDRNIERLVSWFEPRIEDVRPNLIQIIQAVKILQLKISNLNEFKLLFDFWYALNPAQIQAILLKYKPANKGEAGVPNEILNYLANVIKRENLSLPGKMEIMLSAQFDSAKNHLRYDTSAITQNSNTEGLATVSKIIKLDRK | 103.89 | 51.07 | 171.73 | 2.00 | 4.79 | preferentially binds PI(4,5)P2
